Results reported in paper PMC5764952 (2018).

B1: Untagged murine saposin A (SapA) [mouse] / His6-tagged murine β-galactocerebrosidase (GALC) [modified: glycosylated; glycosylated] [mouse] (parent complex)
chain 1: MGKSLPCDICKTVVTEAGNLLKDNATQEEILHYLEKTCEWIHDSSLSASCKEVVDSYLPVILDMIKGEMSNPGEVCSALNLCQSLQE
chain 2: YVLDDSDGLGREFDGIGAVSGGGATSRLLVNYPEPYRSEILDYLFKPNFGASLHILKVEIGGDGQTTDGTEPSHMHYELDENYFRGYEWWLMKEAKKRNPDIILMGLPWSFPGWLGKGFSWPYVNLQLTAYYVVRWILGAKHYHDLDIDYIGIWNERPFDANYIKELRKMLDYQGLQRVRIIASDNLWEPISSSLLLDQELWKVVDVIGAHYPGTYTVWNAKMSGKKLWSSEDFSTINSNVGAGCWSRILNQNYINGNMTSTIAWNLVASYYEELPYGRSGLMTAQEPWSGHYVVASPIWVSAHTTQFTQPGWYYLKTVGHLEKGGSYVALTDGLGNLTIIIETMSHQHSMCIRPYLPYYNVSHQLATFTLKGSLREIQELQVWYTKLGTPQQRLHFKQLDTLWLLDGSGSFTLELEEDEIFTLTTLTTGRKGSYPPPPSSKPFPTNYKDDFNVEYPLFSEAPNFADQTGVFEYYMNNEDREHRFTLRQVLNQRPITWAADASSTISVIGDHHWTNMTVQCDVYIETPRSGGVFIAGRVNKGGILIRSATGVFFWIFANGSYRVTADLGGWITYASGHADVTAKRWYTLTLGIKGYFAFGMLNGTILWKNVRVKYPGHGWAAIGTHTFEFAQFDNFRVEAAR

Variants of: B1
Experiment: pull-down (immobilised GALC, Coomassie SDS-PAGE, quantified); in the presence of Tween-20; n = 3; read off a plot

ratio to parent	Variant
~1.1	chain 1 E68K
~0.21	chain 1 E35R
~0.08	chain 1 Q27K
~0.05	chain 1 K22E
~0.06	chain 1 E52K
~0.77	chain 1 K66E
~0.03	chain 1 D63K
~0.12	chain 1 D55K
~0.06	chain 1 E28K
~0.04	chain 1 L31R
~0.13	chain 1 L31N
~0.77	chain 1 W40S
~0.81	chain 1 W40F
~0.8	chain 1 W40D
